The supplement of paper PMC5998384

Key:
HeLa Kyoto [1] = assay: solubility change mitosis vs G1/S (difference of NP-40 vs SDS log2 ratios) (log2 ratio difference); higher = more soluble in mitosis
HeLa Kyoto [2] = assay: solubility in G1/S (NP-40 vs SDS abundance) (log2 ratio); higher = more soluble; details: cell cycle stage: G1/S
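For solubility change mitosis vs G1/S (difference of NP-40 vs SDS log2 ratios) in this document: synchronized HeLa Kyoto cells (double thymidine block for G1/S, nocodazole release for mitosis), protein amounts in NP-40 versus SDS lysates quantified by mass spectrometry, three biological replicates.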
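For solubility in G1/S (NP-40 vs SDS abundance) in this document: HeLa Kyoto cells arrested at G1/S by double thymidine block, proteins quantified by TMT10plex mass spectrometry in mild NP-40 versus SDS extracts, three biological replicates.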

| Sequence | solubility change mitosis (log2) (HeLa Kyoto [1]) | solubility in G1/S (log2) (HeLa Kyoto [2]) |
| --- | --- | --- |
| MHSSNPKVRSSPSGNTQSSPKSKQEVMVRPPTVMSPSGNPQLDSKFSNQGKQGGSASQSQPSPCDSKSGGHTPKALPGPGGSMGLKNGAGNGAKGKGKRERSISADSFDQRDPGTPNDDSDIKECNSADHIKSQDSQHTPHSMTPSNATAPRSSTPSHGQTTATEPTPAQKTPAKVVYVFSTEMANKAAEAVLKGQVETIVSFHIQNISNNKTERSTAPLNTQISALRNDPKPLPQQPPAPANQDQNSSQNTRLQPTPPIPAPAPKPAAPPRPLDRESPGVENKLIPSVGSPASSTPLPPDGTGPNSTPNNRAVTPVSQGSNSSSADPKAPPPPPVSSGEPPTLGENPDGLSQEQLEHRERSLQTLRDIQRMLFPDEKEFTGAQSGGPQQNPGVLDGPQKKPEGPIQAMMAQSQSLGKGPGPRTDVGAPFGPQGHRDVPFSPDEMVPPSMNSQSGTIGPDHLDHMTPEQIAWLKLQQEFYEEKRRKQEQVVVQQCSLQDMMVHQHGPRGVVRGPPPPYQMTPSEGWAPGGTEPFSDGINMPHSLPPRGMAPHPNMPGSQMRLPGFAGMINSEMEGPNVPNPASRPGLSGVSWPDDVPKIPDGRNFPPGQGIFSGPGRGERFPNPQGLSEEMFQQQLAEKQLGLPPGMAMEGIRPSMEMNRMIPGSQRHMEPGNNPIFPRIPVEGPLSPSRGDFPKGIPPQMGPGRELEFGMVPSGMKGDVNLNVNMGSNSQMIPQKMREAGAGPEEMLKLRPGGSDMLPAQQKMVPLPFGEHPQQEYGMGPRPFLPMSQGPGSNSGLRNLREPIGPDQRTNSRLSHMPPLPLNPSSNPTSLNTAPPVQRGLGRKPLDISVAGSQVHSPGINPLKSPTMHQVQSPMLGSPSGNLKSPQTPSQLAGMLAGPAAAASIKSPPVLGSAAASPVHLKSPSLPAPSPGWTSSPKPPLQSPGIPPNHKAPLTMASPAMLGNVESGGPPPPTASQPASVNIPGSLPSSTPYTMPPEPTLSQNPLSIMMSRMSKFAMPSSTPLYHDAIKTVASSDDDSPPARSPNLPSMNNMPGMGINTQNPRISGPNPVVPMPTLSPMGMTQPLSHSNQMPSPNAVGPNIPPHGVPMGPGLMSHNPIMGHGSQEPPMVPQGRMGFPQGFPPVQSPPQQVPFPHNGPSGGQGSFPGGMGFPGEGPLGRPSNLPQSSADAALCKPGGPGGPDSFTVLGNSMPSVFTDPDLQEVIRPGATGIPEFDLSRIIPSEKPSQTLQYFPRGEVPGRKQPQGPGPGFSHMQGMMGEQAPRMGLALPGMGGPGPVGTPDIPLGTAPSMPGHNPMRPPAFLQQGMMGPHHRMMSPAQSTMPGQPTLMSNPAAAVGMIPGKDRGPAGLYTHPGPVGSPGMMMSMQGMMGPQQNIMIPPQMRPRGMAADVGMGGFSQGPGNPGNMMF [BCL9] | 0.0803 | 0.308 |
| MIKCLSVEVQAKLRSGLAISSLGQCVEELALNSIDAEAKCVAVRVNMETFQVQVIDNGFGMGSDDVEKVGNRYFTSKCHSVQDLENPRFYGFRGEALANIADMASAVEISSKKNRTMKTFVKLFQSGKALKACEADVTRASAGTTVTVYNLFYQLPVRRKCMDPRLEFEKVRQRIEALSLMHPSISFSLRNDVSGSMVLQLPKTKDVCSRFCQIYGLGKSQKLREISFKYKEFELSGYISSEAHYNKNMQFLFVNKRLVLRTKLHKLIDFLLRKESIICKPKNGPTSRQMNSSLRHRSTPELYGIYVINVQCQFCEYDVCMEPAKTLIEFQNWDTLLFCIQEGVKMFLKQEKLFVELSGEDIKEFSEDNGFSLFDATLQKRVTSDERSNFQEACNNILDSYEMFNLQSKAVKRKTTAENVNTQSSRDSEATRKNTNDAFLYIYESGGPGHSKMTEPSLQNKDSSCSESKMLEQETIVASEAGENEKHKKSFLEHSSLENPCGTSLEMFLSPFQTPCHFEESGQDLEIWKESTTVNGMAANILKNNRIQNQPKRFKDATEVGCQPLPFATTLWGVHSAQTEKEKKKESSNCGRRNVFSYGRVKLCSTGFITHVVQNEKTKSTETEHSFKNYVRPGPTRAQETFGNRTRHSVETPDIKDLASTLSKESGQLPNKKNCRTNISYGLENEPTATYTMFSAFQEGSKKSQTDCILSDTSPSFPWYRHVSNDSRKTDKLIGFSKPIVRKKLSLSSQLGSLEKFKRQYGKVENPLDTEVEESNGVTTNLSLQVEPDILLKDKNRLENSDVCKITTMEHSDSDSSCQPASHILNSEKFPFSKDEDCLEQQMPSLRESPMTLKELSLFNRKPLDLEKSSESLASKLSRLKGSERETQTMGMMSRFNELPNSDSSRKDSKLCSVLTQDFCMLFNNKHEKTENGVIPTSDSATQDNSFNKNSKTHSNSNTTENCVISETPLVLPYNNSKVTGKDSDVLIRASEQQIGSLDSPSGMLMNPVEDATGDQNGICFQSEESKARACSETEESNTCCSDWQRHFDVALGRMVYVNKMTGLSTFIAPTEDIQAACTKDLTTVAVDVVLENGSQYRCQPFRSDLVLPFLPRARAERTVMRQDNRDTVDDTVSSESLQSLFSEWDNPVFARYPEVAVDVSSGQAESLAVKIHNILYPYRFTKGMIHSMQVLQQVDNKFIACLMSTKTEENGEAGGNLLVLVDQHAAHERIRLEQLIIDSYEKQQAQGSGRKKLLSSTLIPPLEITVTEEQRRLLWCYHKNLEDLGLEFVFPDTSDSLVLVGKVPLCFVEREANELRRGRSTVTKSIVEEFIREQLELLQTTGGIQGTLPLTVQKVLASQACHGAIKFNDGLSLQESCRLIEALSSCQLPFQCAHGRPSMLPLADIDHLEQEKQIKPNLTKLRKMAQAWRLFGKAECDTRQSLQQSMPPCEPP [MLH3] | 0.153 | -0.402 |
| MILQRLFRFSSVIRSAVSVHLRRNIGVTAVAFNKELDPIQKLFVDKIREYKSKRQTSGGPVDASSEYQQELERELFKLKQMFGNADMNTFPTFKFEDPKFEVIEKPQA [ATP5J] | 0.55 | -0.962 |
| MIMNKMKNFKRRFSLSVPRTETIEESLAEFTEQFNQLHNRRNENLQLGPLGRDPPQECSTFSPTDSGEEPGQLSPGVQFQRRQNQRRFSMEDVSKRLSLPMDIRLPQEFLQKLQMESPDLPKPLSRMSRRASLSDIGFGKLETYVKLDKLGEGTYATVFKGRSKLTENLVALKEIRLEHEEGAPCTAIREVSLLKNLKHANIVTLHDLIHTDRSLTLVFEYLDSDLKQYLDHCGNLMSMHNVKIFMFQLLRGLAYCHHRKILHRDLKPQNLLINERGELKLADFGLARAKSVPTKTYSNEVVTLWYRPPDVLLGSTEYSTPIDMWGVGCIHYEMATGRPLFPGSTVKEELHLIFRLLGTPTEETWPGVTAFSEFRTYSFPCYLPQPLINHAPRLDTDGIHLLSSLLLYESKSRMSAEAALSHSYFRSLGERVHQLEDTASIFSLKEIQLQKDPGYRGLAFQQPGRGKNRRQSIF [CDK18] | -0.00432 | 0.0482 |
| MIRDLSKMYPQTRHPAPHQPAQPFKFTISESCDRIKEEFQFLQAQYHSLKLECEKLASEKTEMQRHYVMYYEMSYGLNIEMHKQAEIVKRLNAICAQVIPFLSQEHQQQVVQAVERAKQVTMAELNAIIGQQLQAQHLSHGHGLPVPLTPHPSGLQPPAIPPIGSSAGLLALSSALGGQSHLPIKDEKKHHDNDHQRDRDSIKSSSVSPSASFRGAEKHRNSADYSSESKKQKTEEKEIAARYDSDGEKSDDNLVVDVSNEDPSSPRGSPAHSPRENGLDKTRLLKKDAPISPASIASSSSTPSSKSKELSLNEKSTTPVSKSNTPTPRTDAPTPGSNSTPGLRPVPGKPPGVDPLASSLRTPMAVPCPYPTPFGIVPHAGMNGELTSPGAAYAGLHNISPQMSAAAAAAAAAAAYGRSPVVGFDPHHHMRVPAIPPNLTGIPGGKPAYSFHVSADGQMQPVPFPPDALIGPGIPRHARQINTLNHGEVVCAVTISNPTRHVYTGGKGCVKVWDISHPGNKSPVSQLDCLNRDNYIRSCRLLPDGRTLIVGGEASTLSIWDLAAPTPRIKAELTSSAPACYALAISPDSKVCFSCCSDGNIAVWDLHNQTLVRQFQGHTDGASCIDISNDGTKLWTGGLDNTVRSWDLREGRQLQQHDFTSQIFSLGYCPTGEWLAVGMENSNVEVLHVTKPDKYQLHLHESCVLSLKFAHCGKWFVSTGKDNLLNAWRTPYGASIFQSKESSSVLSCDISVDDKYIVTGSGDKKATVYEVIY [TLE4] | -0.13 | -0.00686 |
| MKEMVGGCCVCSDERGWAENPLVYCDGHACSVAVHQACYGIVQVPTGPWFCRKCESQERAARVRCELCPHKDGALKRTDNGGWAHVVCALYIPEVQFANVLTMEPIVLQYVPHDRFNKTCYICEEQGRESKAASGACMTCNRHGCRQAFHVTCAQMAGLLCEEEVLEVDNVKYCGYCKYHFSKMKTSRHSSGGGGGGAGGGGGSMGGGGSGFISGRRSRSASPSTQQEKHPTHHERGQKKSRKDKERLKQKHKKRPESPPSILTPPVVPTADKVSSSASSSSHHEASTQETSESSRESKGKKSSSHSLSHKGKKLSSGKGVSSFTSASSSSSSSSSSSGGPFQPAVSSLQSSPDFSAFPKLEQPEEDKYSKPTAPAPSAPPSPSAPEPPKADLFEQKVVFSGFGPIMRFSTTTSSSGRARAPSPGDYKSPHVTGSGASAGTHKRMPALSATPVPADETPETGLKEKKHKASKRSRHGPGRPKGSRNKEGTGGPAAPSLPSAQLAGFTATAASPFSGGSLVSSGLGGLSSRTFGPSGSLPSLSLESPLLGAGIYTSNKDPISHSGGMLRAVCSTPLSSSLLGPPGTSALPRLSRSPFTSTLPSSSASISTTQVFSLAGSTFSLPSTHIFGTPMGAVNPLLSQAESSHTEPDLEDCSFRCRGTSPQESLSSMSPISSLPALFDQTASAPCGGGQLDPAAPGTTNMEQLLEKQGDGEAGVNIVEMLKALHALQKENQRLQEQILSLTAKKERLQILNVQLSVPFPALPAALPAANGPVPGPYGLPPQAGSSDSLSTSKSPPGKSSLGLDNSLSTSSEDPHSGCPSRSSSSLSFHSTPPPLPLLQQSPATLPLALPGAPAPLPPQPQNGLGRAPGAAGLGAMPMAEGLLGGLAGSGGLPLNGLLGGLNGAAAPNPASLSQAGGAPTLQLPGCLNSLTEQQRHLLQQQEQQLQQLQQLLASPQLTPEHQTVVYQMIQQIQQKRELQRLQMAGGSQLPMASLLAGSSTPLLSAGTPGLLPTASAPPLLPAGALVAPSLGNNTSLMAAAAAAAAVAAAGGPPVLTAQTNPFLSLSGAEGSGGGPKGGTADKGASANQEKG [MLLT6] | 0.828 | -1.14 |
| MKLLSLVAVVGCLLVPPAEANKSSEDIRCKCICPPYRNISGHIYNQNVSQKDCNCLHVVEPMPVPGHDVEAYCLLCECRYEERSTTTIKVIIVIYLSVVGALLLYMAFLMLVDPLIRKPDAYTEQLHNEEENEDARSMAAAAASLGGPRANTVLERVEGAQQRWKLQVQEQRKTVFDRHKMLS [TMEM9] | 0.292 | 0.254 |
| MKPVHERSQECLPPKKRDLPVTSEDMGRTTSCSTNHTPSSDASEWSRGVVVAGQSQAGARVSLGGDGAEAITGLTVDQYGMLYKVAVPPATFSPTGLPSVVNMSPLPPTFNVASSLIQHPGIHYPPLHYAQLPSTSLQFIGSPYSLPYAVPPNFLPSPLLSPSANLATSHLPHFVPYASLLAEGATPPPQAPSPAHSFNKAPSATSPSGQLPHHSSTQPLDLAPGRMPIYYQMSRLPAGYTLHETPPAGASPVLTPQESQSALEAAAANGGQRPRERNLVRRESEALDSPNSKGEGQGLVPVVECVVDGQLFSGSQTPRVEVAAPAHRGTPDTDLEVQRVVGALASQDYRVVAAQRKEEPSPLNLSHHTPDHQGEGRGSARNPAELAEKSQARGFYPQSHQEPVKHRPLPKAMVVANGNLVPTGTDSGLLPVGSEILVASSLDVQARATFPDKEPTPPPITSSHLPSHFMKGAIIQLATGELKRVEDLQTQDFVRSAEVSGGLKIDSSTVVDIQESQWPGFVMLHFVVGEQQSKVSIEVPPEHPFFVYGQGWSSCSPGRTTQLFSLPCHRLQVGDVCISISLQSLNSNSVSQASCAPPSQLGPPRERPERTVLGSRELCDSEGKSQPAGEGSRVVEPSQPESGAQACWPAPSFQRYSMQGEEARAALLRPSFIPQEVKLSIEGRSNAGK [ATXN1L] | -0.12 | 0.172 |
